In assay [1] the target is mHsp60 S464C variant (human). Briefly: SEC-MALS; mHsp60 (WT or variant) with mHsp10, pre-incubated with 1 mM ATP, 1 mM BeCl2 and 10 mM NaF for 5 min; Superose-6, ~25 C. Background: Size exclusion chromatography separates by hydrodynamic size, large species first.
Assay [2] has as its target mHsp60 S464C variant (human). Briefly: native gel or EMSA; 15 uM mHsp60 variant pre-incubated 5 min without nucleotide or with ADP in 20 mM Tris-HCl pH 7.7, 20 mM MgCl2, 50 mM KCl; 6% native PAGE. A general note: Mobility shift assays separate free from complexed probe on a gel.
Assay [3] concerns the target mHsp60 S464R/K109E variant (human). Briefly: SEC-MALS; mHsp60 (WT or variant) with mHsp10, pre-incubated with 1 mM ATP, 1 mM BeCl2 and 10 mM NaF for 5 min; Superose-6, ~25 C.
Assay [4] has as its target mHsp60 S464R variant (human). The description is as above.

For three substances, stoichiometry N results are on record in article PMC7174398.

By stoichiometry N is commonly meant a count of units in the complex or per binding partner.

Consider mHsp60 S464C variant (natural protein), for which the stoichiometry N in assay [1] is 14; in assay [2], 7.

For the substance “mHsp60 S464R/K109E variant (natural protein)”, the stoichiometry N in assay [3] was found to be 7.

In assay [4], mHsp60 S464R variant (natural protein) gave a stoichiometry N of 7.
